The labels stand for the following.
B1: Myc-B55α wild type [not stated] / Flag-pRB [not stated] (parent complex)
chain 1: MAGAGGGNDIQWCFSQVKGAVDDDVAEADIISTVEFNHSGELLATGDKGGRVVIFQQEQENKIQSHSRGEYNVYSTFQSHEPEFDYLKSLEIEEKINKIRWLPQKNAAQFLLSTNDKTIKLWKISERDKRPEGYNLKEEDGRYRDPTTVTTLRVPVFRPMDLMVEASPRRIFANAHTYHINSISINSDYETYLSADDLRINLWHLEITDRSFNIVDIKPANMEELTEVITAAEFHPNSCNTFVYSSSKGTIRLCDMRASALCDRHSKLFEEPEDPSNRSFFSEIISSISDVKFSHSGRYMMTRDYLSVKIWDLNMENRPVETYQVHEYLRSKLCSLYENDCIFDKFECCWNGSDSVVMTGSYNNFFRMFDRNTKRDITLEASRENNKPRTVLKPRKVCASGKRKKDEISVDSLDFNKKILHTAWHPKENIIAVATTNNLYIFQDKVN
chain 2: MPPKTPRKTAATAAAAAAEPPAPPPPPPPEEDPEQDSGPEDLPLVRLEFEETEEPDFTALCQKLKIPDHVRERAWLTWEKVSSVDGVLGGYIQKKKELWGICIFIAAVDLDEMSFTFTELQKNIEISVHKFFNLLKEIDTSTKVDNAMSRLLKKYDVLFALFSKLERTCELIYLTQPSSSISTEINSALVLKVSWITFLLAKGEVLQMEDDLVISFQLMLCVLDYFIKLSPPMLLKEPYKTAVIPINGSPRTPRRGQNRSARIAKQLENDTRIIEVLCKEHECNIDEVKNVYFKNFIPFMNSLGLVTSNGLPEVENLSKRYEEIYLKNKDLDARLFLDHDKTLQTDSIDSFETQRTPRKSNLDEEVNVIPPHTPVRTVMNTIQQLMMILNSASDQPSENLISYFNNCTVNPKESILKRVKDIGYIFKEKFAKAVGQGCVEIGSQRYKLGVRLYYRVMESMLKSEEERLSIQNFSKLLNDNIFHMSLLACALEVVMATYSRSTSQNLDSGTDLSFPWILNVLNLKAFDFYKVIESFIKAEGNLTREMIKHLERCEHRIMESLAWLSDSPLFDLIKQSKDREGPTDHLESACPLNLPLQNNHTAADMYLSPVRSPKKKGSTTRVNSTANAETQATSAFQTQKPLKSTSLSLFYKKVYRLAYLRLNTLCERLLSEHPELEHIIWTLFQHTLQNEYELMRDRHLDQIMMCSMYGICKVKNIDLKFKIIVTAYKDLPHAVQETFKRVLIKEEEYDSIIVFYNSVFMQRLKTNILQYASTRPPTLSPIPHIPRSPYKFPSSPLRIPGGNIYISPLKSPYKISEGLPTPTKMTPRSRILVSIGESFGTSEKFQKINQMVCNSDRVLKRSAEGSNPPKPLKKLRFDIEGSDEADGSKHLPGESKFQQKLAEMTSTRTRMQKQKMNDSMDTSNKEEK

The variants in this test derive from B1. The test can be described thus: co-immunoprecipitation (anti-Myc IP), western blot quantitation; 293T cells, co-transfected; read off a plot.
As for chain 1 T436A, the ratio to parent was roughly 0.7.
Regarding chain 1 F280A, the ratio to parent is roughly 0.5.
Next, chain 1 D116A: roughly 0.35.
